Drawing on US20220119509A1 (ARGENX, published 2022), this text covers binding result and Kd for two molecules.

One assay deals with T1, mouse C2 (mouse, UniProt P21180 19-760, limits assumed).
T1 sequence (looked up): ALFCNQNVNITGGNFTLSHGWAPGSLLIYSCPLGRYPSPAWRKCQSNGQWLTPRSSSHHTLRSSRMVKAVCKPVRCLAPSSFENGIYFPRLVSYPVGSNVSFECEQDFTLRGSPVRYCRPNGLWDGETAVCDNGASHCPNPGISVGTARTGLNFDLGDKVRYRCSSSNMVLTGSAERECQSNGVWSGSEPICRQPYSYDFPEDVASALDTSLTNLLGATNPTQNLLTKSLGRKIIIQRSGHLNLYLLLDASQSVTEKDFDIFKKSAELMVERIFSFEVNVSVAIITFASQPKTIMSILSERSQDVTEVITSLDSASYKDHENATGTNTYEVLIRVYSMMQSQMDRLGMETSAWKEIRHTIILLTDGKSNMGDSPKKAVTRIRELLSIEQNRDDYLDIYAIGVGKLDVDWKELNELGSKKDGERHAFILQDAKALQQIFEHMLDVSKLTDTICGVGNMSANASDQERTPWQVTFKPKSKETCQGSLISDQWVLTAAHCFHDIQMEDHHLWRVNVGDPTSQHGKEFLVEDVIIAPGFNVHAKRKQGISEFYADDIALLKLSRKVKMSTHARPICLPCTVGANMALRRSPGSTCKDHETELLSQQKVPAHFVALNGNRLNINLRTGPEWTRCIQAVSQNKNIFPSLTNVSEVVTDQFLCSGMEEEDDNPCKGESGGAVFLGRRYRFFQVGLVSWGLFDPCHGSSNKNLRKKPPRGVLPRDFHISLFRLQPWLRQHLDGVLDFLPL
As to the kind of experiment: not described.

Assay [1] addresses T2, huC2b with mouse S2 (huC2b-mS2) (mouse, UniProt P06681 21-243 (human entry)).
T2 chain: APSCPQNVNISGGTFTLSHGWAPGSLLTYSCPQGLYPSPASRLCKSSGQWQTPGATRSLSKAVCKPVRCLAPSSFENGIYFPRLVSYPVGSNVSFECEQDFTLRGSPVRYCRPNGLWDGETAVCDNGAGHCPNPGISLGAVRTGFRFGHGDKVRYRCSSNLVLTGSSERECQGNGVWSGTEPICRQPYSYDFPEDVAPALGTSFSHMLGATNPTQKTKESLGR
As to the kind of experiment: sandwich ELISA: coated anti-C2-5F2.4, HEK293 supernatant, detection with anti-FLAG. For orientation: An ELISA detects its analyte on a solid surface through an enzyme-linked reagent.

For assay [2], the target named is T3, wild type C2 with C-terminal FLAG tag (human, UniProt P06681 21-752).
T3 construct: Secreted into the supernatant of transfected HEK293T cells; not shown: C-terminal FLAG tag
T3 sequence: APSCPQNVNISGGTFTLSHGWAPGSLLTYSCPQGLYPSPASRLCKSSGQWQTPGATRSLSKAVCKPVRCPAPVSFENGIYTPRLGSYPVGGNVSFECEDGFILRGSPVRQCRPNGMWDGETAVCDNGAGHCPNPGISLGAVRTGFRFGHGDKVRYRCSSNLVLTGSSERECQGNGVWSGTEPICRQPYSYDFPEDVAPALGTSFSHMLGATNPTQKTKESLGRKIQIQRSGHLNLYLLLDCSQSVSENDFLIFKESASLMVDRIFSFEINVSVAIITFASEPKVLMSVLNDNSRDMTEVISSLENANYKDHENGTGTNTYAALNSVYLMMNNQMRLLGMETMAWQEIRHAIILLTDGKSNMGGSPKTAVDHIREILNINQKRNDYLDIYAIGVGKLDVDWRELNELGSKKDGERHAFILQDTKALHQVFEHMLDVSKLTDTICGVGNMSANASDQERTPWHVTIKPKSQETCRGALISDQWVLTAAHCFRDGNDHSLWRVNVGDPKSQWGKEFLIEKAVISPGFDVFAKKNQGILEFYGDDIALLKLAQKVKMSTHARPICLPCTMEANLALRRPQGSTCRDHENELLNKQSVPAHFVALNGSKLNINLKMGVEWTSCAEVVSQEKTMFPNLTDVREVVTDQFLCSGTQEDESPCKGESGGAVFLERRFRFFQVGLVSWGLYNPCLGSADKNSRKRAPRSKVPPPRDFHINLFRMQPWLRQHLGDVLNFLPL
As to the kind of experiment: sandwich ELISA: coated anti-C2-5F2.4, HEK293 supernatant diluted 20 times, detection with anti-FLAG. How it is done: FIG. 12 depicts results obtained with a domain swap ELISA performed with anti-C2-5F2.4. Anti-C2-5F2.4 mAb (human IgG4 S241P VH4/VL3 LC-13/03-163A Bioceros) was used for coating, plates were incubated with 20 times diluted supernatant of HEK293 transfectants, and binding was detected by an anti-FLAG Ab. Representative results from two independent experiments with similar outcome.
Next, the recognition of the swap mutants by the anti-C2-5F2.4 antibody was investigated. To this effect, microplates (Maxisorp, NUNC, Cat #439454) were coated overnight with 2 μg/mL anti-C2-5F2.4 in 100 μL PBS. Plates were washed 4 times with PBS with 0.05% Tween-20 and blocked with 200 μL PBS with 0.1% Tween-20 with 1% bovine serum albumin (BSA) (PBST-BSA) for 1 hour at RT. After washing, 100 μL culture supernatant containing mutants were added 20× diluted in PBST-BSA and incubated for 2 hours at RT with agitation. After washing, as detection antibody 1 μg/mL biotinylated anti-FLAG (clone M2, Sigma-Aldrich) was added in PBST-BSA for 1 hour at RT. The plate was washed and 1 μg/mL streptavidin-POD conjugate (Roche, Cat #11089153001) was added and incubated in the dark for 30 minutes. […] Absorbance was measured at 450 nm on a microplate reader (BioRad, iMark Microplate reader).

The target in assay [3] is T4, human C2b fragment (huC2b) (human, UniProt P06681 21-243).
T4 construct: Supernatant of transfected HEK293 cells; not shown: FLAG tag (the construct is detected with anti-FLAG)
T4 sequence: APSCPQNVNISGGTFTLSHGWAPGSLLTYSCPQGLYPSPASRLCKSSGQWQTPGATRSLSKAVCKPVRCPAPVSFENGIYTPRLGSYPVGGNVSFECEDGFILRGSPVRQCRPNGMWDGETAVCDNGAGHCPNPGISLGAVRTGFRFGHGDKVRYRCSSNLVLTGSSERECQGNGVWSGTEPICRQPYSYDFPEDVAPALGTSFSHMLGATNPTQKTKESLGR
The description is as above.

The target in assay [4] is T5, human complement factor C2 (human, UniProt P06681 21-752).
T5 construct: also called human C2; recombinant human C2
T5 sequence: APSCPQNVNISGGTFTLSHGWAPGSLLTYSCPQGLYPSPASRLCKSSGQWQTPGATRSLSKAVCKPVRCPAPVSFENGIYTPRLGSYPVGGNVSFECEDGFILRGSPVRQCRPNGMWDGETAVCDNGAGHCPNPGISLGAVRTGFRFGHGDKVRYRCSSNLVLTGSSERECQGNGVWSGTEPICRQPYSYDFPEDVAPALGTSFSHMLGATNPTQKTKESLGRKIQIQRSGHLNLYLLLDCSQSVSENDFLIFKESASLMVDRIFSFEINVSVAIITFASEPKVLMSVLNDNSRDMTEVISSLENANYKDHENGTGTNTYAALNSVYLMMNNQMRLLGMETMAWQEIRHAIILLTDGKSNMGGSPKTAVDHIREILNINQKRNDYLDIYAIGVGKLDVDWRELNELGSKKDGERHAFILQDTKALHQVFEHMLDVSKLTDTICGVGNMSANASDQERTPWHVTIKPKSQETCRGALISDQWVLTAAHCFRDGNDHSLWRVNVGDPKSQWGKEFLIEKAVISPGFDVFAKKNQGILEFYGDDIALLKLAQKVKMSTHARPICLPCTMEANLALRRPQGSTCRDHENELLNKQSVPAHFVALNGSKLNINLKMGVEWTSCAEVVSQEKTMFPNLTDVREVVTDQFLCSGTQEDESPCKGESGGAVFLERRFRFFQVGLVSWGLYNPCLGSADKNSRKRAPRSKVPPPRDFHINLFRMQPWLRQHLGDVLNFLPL
As to the kind of experiment: SPR (Biacore), C2 coated on the chip, Fab in solution, 1:1 model; C2 on the chip, Fab in solution. (Surface plasmon resonance follows binding to a sensor surface in real time, without labels.)

B1: anti-C2-5F2.4 mAb (human IgG4 S241P VH4/VL3 LC-13/03-163A Bioceros) (antibody, V domains shown)
VH: EVQLVQSGAEVKKPGASVKVSCKASGYTFTDYNMDWVRQATGQGLEWIGDINPNYESTGYNQKFKGRATMTVNKSISTAYMELSSLRSEDTAVYYCAREDDHDAFAYWGQGTLVTVSS
VL: DNVLTQSPDSLAVSLGERATISCRASKSVRTSGYNYMHWYQQKPGQPPKLLIYLASNLKSGVPDRFSGSGSGTDFTLTISSLQAEDAATYYCQHSRELPYTFGQGTKLEIK
notes: Human IgG4 S241P; also called humanized 5F2.4
B1: the binding result with mouse C2 was “no binding”; in assay [1] it was “no binding”; in assay [2], “binds”; in assay [3] it was “binds”.

B2: Fab of ARGX-117 (Fab, V domains shown)
VH: EVQLVQSGAEVKKPGASVKVSCKASGYTFTDYNMDWVRQATGQGLEWIGDINPNYESTGYNQKFKGRATMTVDKSISTAYMELSSLRSEDTAVYYCAREDDHDAFAYWGQGTLVTVSS
VL: DNVLTQSPDSLAVSLGERATISCRASKSVRTSGYNYMHWYQQKPGQPPKLLIYLASNLKSGVPDRFSGSGSGTDFTLTISSLQAEDAATYYCQHSRELPYTFGQGTKLEIK
What is called Kd is the concentration at which binding is half-saturated. High values mean a looser complex, low ones a tighter complex. Consider B2, for which the Kd in assay [4] is ~0.3 nM.
